# Measurements reported in patent US20160311917A1 (Novartis, published 2016).
# T1: Glycosylation Deficient Mesothelin (296-588; N388Q, N496Q, N523Q) (human)
# T1 construct: It already carries N388Q, N496Q and N523Q; also called hMSLN296-588; human mesothelin(296-588)
# T1 chain: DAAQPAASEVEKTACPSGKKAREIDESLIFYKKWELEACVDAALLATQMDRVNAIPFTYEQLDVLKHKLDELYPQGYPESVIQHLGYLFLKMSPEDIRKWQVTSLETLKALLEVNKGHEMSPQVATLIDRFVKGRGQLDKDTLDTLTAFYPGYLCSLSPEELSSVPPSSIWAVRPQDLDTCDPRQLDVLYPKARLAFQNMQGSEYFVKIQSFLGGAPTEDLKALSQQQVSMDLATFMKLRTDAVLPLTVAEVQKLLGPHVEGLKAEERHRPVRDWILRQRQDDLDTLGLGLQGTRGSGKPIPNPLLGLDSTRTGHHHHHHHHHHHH
# T2: recombinant human biotinylated mesothelin extracellular domain with C-terminal Avi-Tag (human, site selectively biotinylated in vitro with BirA enzyme at the C-terminal Avi-Tag)
# T2 construct: Produced in HEK293F cells; as printed it includes a His tag and the Avi-Tag; Immobilised on a streptavidin sensor chip for SPR; also called human MSLN ECD; human mesothelin ECD
# T2 chain: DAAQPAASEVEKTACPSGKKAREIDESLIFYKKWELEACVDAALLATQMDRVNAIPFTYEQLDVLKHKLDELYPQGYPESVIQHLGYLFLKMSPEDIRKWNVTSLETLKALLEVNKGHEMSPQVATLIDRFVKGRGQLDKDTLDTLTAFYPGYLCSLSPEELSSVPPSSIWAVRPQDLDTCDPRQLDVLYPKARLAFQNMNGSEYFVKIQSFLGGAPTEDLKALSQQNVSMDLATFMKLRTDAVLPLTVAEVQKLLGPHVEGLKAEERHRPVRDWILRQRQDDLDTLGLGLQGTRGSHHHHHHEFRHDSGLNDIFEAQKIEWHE
# Molecular target: T1, Glycosylation Deficient Mesothelin …
# Test: Hydrogen-deuterium exchange mass spectrometry: difference in deuterium uptake of the co-expressed complex against unbound mesothelin, peptides 456-586
# Method: For hMSLN₂₉₆₋₅₈₈ deuterium labeling experiments in the absence of antibody, 400 pmol of hMSLN₂₉₆₋₅₈₈, volume of 6.9 was diluted using 100 μl of the deuterium buffer for 15 minutes at 4° C. The labeling reaction was then quenched with 100 μl of chilled quench buffer at 2° C. for three minutes followed by injected onto the LC-MS system for automated pepsin digestion and peptide analysis.
# The labeling reaction was then quenched with 100 μl of chilled quench buffer at 2° C. for three minutes followed by injected onto the LC-MS system for automated pepsin digestion and peptide analysis. […] The labeling reaction was then quenched with 100 μl of chilled quench buffer at 2° C. for three minutes, and then injected onto the LC-MS system for automated pepsin digestion and peptide analysis.
# All deuterium exchange experiments were quenched using 0.5 M TCEP and 3 M urea (pH=2.6). After quenching, the exchanged antigen was subjected to on-line pepsin digestion using a Poroszyme Immobilized Pepsin column (2.1×30 mm) at 12° C. followed by trapping on a Waters Vanguard HSS T3 trapping column.
row,binding result,Binder
1,binds,"M5 scFv (human anti-mesothelin scFv, soluble, His-tagged) (scFv, also called scFv M5; XP31-20LC) scFv: QVQLVQSGAEVEKPGASVKVSCKASGYTFTDYYMHWVRQAPGQGLEWMGWINPNSGGTNYAQKFQGRVTMTRDTSISTAYMELSRLRSDDTAVYYCASGWDFDYWGQGTLVTVSSGGGGSGGGGSGGGGSGGGGSDIVMTQSPSSLSASVGDRVTITCRASQSIRYYLSWYQQKPGKAPKLLIYTASILQNGVPSRFSGSGSGTDFTLTISSLQPEDFATYYCLQTYTTPDFGPGTKVEIKGSHHHHHHHH"

# Molecular target: T2, recombinant human biotinylated …
# Test: SPR, Biacore T200; biotinylated mesothelin ECD on streptavidin chip, scFv injected; 1:1 binding model
# Method: (§1) Binding affinity of purified scFvs was measured on a Biacore T200 system. Briefly, recombinant human biotinylated mesothelin ECD was immobilized on a streptavidin (SA) sensor chip surface at a density of 150 RU. Purified scFv was injected over the chip under constant flow rate at three-fold serial dilutions. Association and dissociation rates of the protein complex were monitored for 270 seconds and 400 seconds, respectively. Double referencing was performed against a blank immobilized flow cell and a buffer blank. Affinity was determined with a Langmuir 1:1 binding model when possible, for those scFVs where accurate fitting was not possible due to fast on and off rates, the steady state model was used.
Binder,Kd [nM],koff [s⁻¹],kon [M⁻¹ s⁻¹]
"M5 scFv (human anti-mesothelin scFv, soluble, His-tagged) (scFv, also called scFv M5; XP31-20LC) scFv: QVQLVQSGAEVEKPGASVKVSCKASGYTFTDYYMHWVRQAPGQGLEWMGWINPNSGGTNYAQKFQGRVTMTRDTSISTAYMELSRLRSDDTAVYYCASGWDFDYWGQGTLVTVSSGGGGSGGGGSGGGGSGGGGSDIVMTQSPSSLSASVGDRVTITCRASQSIRYYLSWYQQKPGKAPKLLIYTASILQNGVPSRFSGSGSGTDFTLTISSLQPEDFATYYCLQTYTTPDFGPGTKVEIKGSHHHHHHHH",26.9,0.00113,42000
"M16 scFv (human anti-mesothelin scFv, soluble, His-tagged) (scFv, also called XS87-99RD) scFv: EVQLVESGGGLVQPGRSLRLSCAASGFTFDDYAMHWVRQAPGKGLEWVSGISWNSGSTGYADSVKGRFTISRDNAKNSLYLQMNSLRAEDTALYYCAKDSSSWYGGGSAFDIWGQGTMVTVSSGGGGSGGGGSGGGGSSSELTQEPAVSVALGQTVRITCQGDSLRSYYASWYQQKPGQAPVLVIFGRSRRPSGIPDRFSGSSSGNTASLIITGAQAEDEADYYCNSRDNTANHYVFGTGTKLTVLGSHHHHHHHH",22.7,0.00395,174000

# Further lines, results first:
Kd [nM],koff [s⁻¹],kon [M⁻¹ s⁻¹],Binder
27.8,0.0145,522000,"M17 scFv (human anti-mesothelin scFv, soluble, His-tagged) (scFv, also called NS89-94MD) scFv: EVQLVESGGGLVQPGRSLRLSCAASGFTFDDYAMHWVRQAPGKGLEWVSGISWNSGSTGYADSVKGRFTISRDNAKNSLYLQMNSLRAEDTALYYCAKDSSSWYGGGSAFDIWGQGTMVTVSSGGGGSGGGGSGGGGSSSELTQDPAVSVALGQTVRITCQGDSLRSYYASWYQQKPGQAPVLVIYGKNNRPSGIPDRFSGSSSGNTASLTITGAQAEDEADYYCNSRGSSGNHYVFGTGTKVTVLGSHHHHHHHH"
0.9,0.00251,2.75e+06,"M14 scFv (human anti-mesothelin scFv, soluble, His-tagged) (scFv, also called BS83-95ID) scFv: QVQLVQSGAEVRAPGASVKISCKASGFTFRGYYIHWVRQAPGQGLEWMGIINPSGGSRAYAQKFQGRVTMTRDTSTSTVYMELSSLRSDDTAMYYCARTASCGGDCYYLDYWGQGTLVTVSSGGGGSGGGGSGGGGSGGGGSDIQMTQSPPTLSASVGDRVTITCRASENVNIWLAWYQQKPGKAPKLLIYKSSSLASGVPSRFSGSGSGAEFTLTISSLQPDDFATYYCQQYQSYPLTFGGGTKVDIKGSHHHHHHHH"

# Molecular target: T2, recombinant human biotinylated …
# Test: SPR, Biacore T200; biotinylated mesothelin ECD on streptavidin chip, scFv injected; steady state affinity model
# Method: as §1
row,Binder,Kd [nM]
1,"M21 scFv (human anti-mesothelin scFv, soluble, His-tagged) (scFv, also called MM21; ZS95-03QD) scFv: QVQLVQSWAEVKKPGASVKVSCKASGYTFTSYYMHWVRQAPGQGLEWMGIINPSGGSTSYAQKFQGRVTMTRDTSTSTVYMELSNLRSEDTAVYYCARSPRVTTGYFDYWGQGTLVTVSSGGGGSGGGGSGGGGSGGGGSDIQLTQSPSTLSASVGDRVTITCRASQSISSWLAWYQQKPGKAPKLLIYKASSLESGVPSRFSGSGSGTEFTLTISSLQPDDFATYYCQQYSSYPLTFGGGTRLEIKGSHHHHHHHH",110
2,"M23 scFv (human anti-mesothelin scFv, soluble, His-tagged) (scFv, also called XH66-84HE) scFv: QVQLQQSGAEVKKPGASVKVSCKASGYTFTNYYMHWVRQAPGQGLEWMGIINPSGGYTTYAQKFQGRLTMTRDTSTSTVYMELSSLRSEDTAVYYCARIRSCGGDCYYFDNWGQGTLVTVSSGGGGSGGGGSGGGGSGGGGSDIQLTQSPSTLSASVGDRVTITCRASENVNIWLAWYQQKPGKAPKLLIYKSSSLASGVPSRFSGSGSGAEFTLTISSLQPDDFATYYCQQYQSYPLTFGGGTKVDIKGSHHHHHHHH",114

# Next, values leading:
row,Kd [nM],Binder
1,307,"M12 scFv (human anti-mesothelin scFv, soluble, His-tagged) (scFv, also called DE12-14RD) scFv: QVQLVQSGAEVKKPGASVKVSCKASGYTFTGYYMHWVRQAPGQGLEWMGRINPNSGGTNYAQKFQGRVTMTTDTSTSTAYMELRSLRSDDTAVYYCARTTTSYAFDIWGQGTMVTVSSGGGGSGGGGSGGGGSGGGGSDIQLTQSPSTLSASVGDRVTITCRASQSISTWLAWYQQKPGKAPNLLIYKASTLESGVPSRFSGSGSGTEFTLTISSLQPDDFATYYCQQYNTYSPYTFGQGTKLEIKGSHHHHHHHH"
2,64.7,"M11 scFv (human anti-mesothelin scFv, soluble, His-tagged) (scFv, also called NE10-19WD) scFv: QVQLQQSGAEVKKPGASVKVSCKASGYTFTGYYMHWVRQAPGQGLEWMGWINPNSGGTNYAQNFQGRVTMTRDTSISTAYMELRRLRSDDTAVYYCASGWDFDYWGQGTLVTVSSGGGGSGGGGSGGGGSGGGGSDIRMTQSPSSLSASVGDRVTITCRASQSIRYYLSWYQQKPGKAPKLLIYTASILQNGVPSRFSGSGSGTDFTLTISSLQPEDFATYYCLQTYTTPDFGPGTKVEIKGSHHHHHHHH"
